Results taken from publication PMC7243271.
Where two headings read alike, the source gives them in different places.

Tests used:
Assay in all cases: SEC-MALS
[1] = target: Nup358-KLC2-fusion protein (human | mouse) (UniProt P49792)
[2] = target: Nup358-min (residues 2147–2240 of human Nup358) (human) (UniProt P49792)
[3] = target: Nup358/W2224A/D2225A-KLC2-fusion protein (human | mouse) (UniProt P49792)
[4] = target: Nup358-KLC2-fusion protein (human | mouse) (UniProt P49792); remark: listed apart in the source

- stoichiometry N [1]: 1
- stoichiometry N [2]: 1
- stoichiometry N [3]: 1
- stoichiometry N [4]: 1
Substance: BicD2-CTD (residues 715–804 of human BicD2) (domain or fragment)
